B1: CPEB3 Ribozyme (parent)
chain: UAACAGGGGGCCACAGCAGAAGCGUUCACGUCGCAGCCCCUGUCAGAUUCUGGUGAAUCUGCGAAUUCUGCUGUAUAUCUC

This data set covers variants of B1. Kind of data set: self-cleavage, relative activity (ratio to wild type); higher = more cleavage; in vitro, sequencing. The gist of the method:
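For each CPEB3 ribozyme variant, relative activity is its cleaved/total read fraction divided by the unmutated ribozyme's. Barcoded error-prone PCR libraries were transcribed by T7 RNA polymerase (5 hours, 37°C) and held in DNase I for 15 min before an EDTA stop, with cleavage occurring throughout. Template-switching reverse transcription and Illumina sequencing were used to read the RNAs. A 5-read minimum applied, and results are the mean of three batches.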
UAACAGGGGGCCACAGCAGAAGCGUUCACGUCGCAGCCCCUGUAAGAUUCUGGUGAAUCUGCGAAUUCUGCUGUAUGUCUC [C44A A77G]: the self-cleavage worked out at 0.43. With UAACAGGGGGCCACAGCAGAAGCGUUCACGUCGCAGCCCCUGGCAGAUUCUGGUGAAUCUGUGAAUUCUGCUGUAUAUCUC [U43G C62U], the self-cleavage was found to be 0.26. UAACAGGGGGCCACAGCAGAAGCGUUCACGUCGCAGCCCCUGGCAGAUUCUGGUGAAUCUGGGAAUUCUGCUGUAUAUCUC [U43G C62G]: the self-cleavage turned out to be 0.43. The figure for UAACAGGGGGCCACAGCAGAAGCGUUCACGUCGCAGCCCCUGGCAGAUUCUGAUGAAUCUGCGAAUUCUGCUGUAUAUCUC [U43G G53A] is 0.3. For UAACAGGGGGCCACAGCAGAAGCGUUCACGUCGCAGCCCCUGUAAGAUUCUGGUGAAUCUGCGCAUUCUGCUGUAUAUCUC [C44A A64C], the self-cleavage came out at 0.18. UAACAGGGGGCCACAGCAGAAGCGUUCACGUCGCAGCCCCUGUAAGAUUCUGGUGAAUCUGCGGAUUCUGCUGUAUAUCUC [C44A A64G]: the self-cleavage turned out to be 0.49.

Consider UAACAGGGGGCCACAGCAGAAGCGUUCACGUCGCAGCCCCUGGCAGAUUCUGGUGAAUCUGCGAAUUCCGCUGUAUAUCUC [U43G U69C], for which the self-cleavage turned out to be 0.35. With UAACAGGGGGCCACAGCAGAAGCGUUCACGUCGCAGCCCCUGGCAGAUUCUGGUGAAUCUGCGAGUUCUGCUGUAUAUCUC [U43G A65G], the self-cleavage was 0.34. For UAACAGGGGGCCACAGCAGAAGCGUUCACGUCGCAGCCCCUGUAGGAUUCUGGUGAAUCUGCGAAUUCUGCUGUAUAUCUC [C44A A45G], the self-cleavage was found to be 0.61. In the case of UAACAGGGGGCCACAGCAGAAGCGUUCACGUCGCAGCCCCUGGCAGAUUCUGGUGAAUCUGCGAAUUCUGCUGUAUAUCUC [U43G], the self-cleavage amounted to 0.28.

As to UAACAGGGGGCCACAGCAGAAGCGUUCACGUCGCAGCCCCUGGCGGAUUCUGGUGAAUCUGCGAAUUCUGCUGUAUAUCUC [U43G A45G], the self-cleavage amounted to 0.19. The figure for UAACAGGGGGCCACAGCAGAAGCGUUCACGUCGCAGCCCCUGGCUGAUUCUGGUGAAUCUGCGAAUUCUGCUGUAUAUCUC [U43G A45U] is 0.18.

As to UAACAGGGGGCCACAGCAGAAGCGUUCACGUCGCAGCCCCUGGUAGAUUCUGGUGAAUCUGCGAAUUCUGCUGUAUAUCUC [U43G C44U], the self-cleavage was 0.14. For UAACAGGGGGCCACAGCAGAAGCGUUCACGUCGCAGCCCCUGGCAGAUCCUGGUGAAUCUGCGAAUUCUGCUGUAUAUCUC [U43G U49C], the self-cleavage amounted to 0.28. For UAACAGGGGGCCACAGCAGAAGCGUUCACGUCGCAGCCCCUGGCAGAUUCUGGUGAAUCUGCGAAUUCUGCUGUAUAUCUU [U43G C81U], the self-cleavage is 0.08.

UAACAGGGGGCCACAGCAGAAGCGUUCACGUCGCAGCCCCUGGCAGAUUCCGGUGAAUCUGCGAAUUCUGCUGUAUAUCUC [U43G U51C]: the self-cleavage was determined as 0.2. For UAACAGGGGGCCACAGCAGAAGCGUUCACGUCGCAGCCCCUGGCAGAUUCUGGUGAAUCUGCGUAUUCUGCUGUAUAUCUC [U43G A64U], the self-cleavage came to 0.47. In the case of UAACAGGGGGCCACAGCAGAAGCGUUCACGUCGCAGCCCCUGGCAGAUUCUGGUGAAUCUGCGGAUUCUGCUGUAUAUCUC [U43G A64G], the self-cleavage is 0.46.

UAACAGGGGGCCACAGCAGAAGCGUUCACGUCGCAGCCCCUGGCAGAUUCUGGUGGAUCUGCGAAUUCUGCUGUAUAUCUC [U43G A56G]: the self-cleavage came out at 0.23. Turning to UAACAGGGGGCCACAGCAGAAGCGUUCACGUCGCAGCCCCUGGCAGAUUCUGGUGUAUCUGCGAAUUCUGCUGUAUAUCUC [U43G A56U], the self-cleavage turned out to be 0.36.

As for UAACAGGGGGCCACAGCAGAAGCGUUCACGUCGCAGCCCCUGUAAGAUUCUGGUGAAUCUGCGAGUUCUGCUGUAUAUCUC [C44A A65G], the self-cleavage worked out at 0.2. For the variant UAACAGGGGGCCACAGCAGAAGCGUUCACGUCGCAGCCCCUGGCAGAUUCUGGUGAAUCUGCGAAUCCUGCUGUAUAUCUC [U43G U67C], the self-cleavage came out at 0.11. Consider UAACAGGGGGCCACAGCAGAAGCGUUCACGUCGCAGCCCCUGUAAGAUUCUGGUGUAUCUGCGAAUUCUGCUGUAUAUCUC [C44A A56U], for which the self-cleavage was determined as 0.21. The figure for UAACAGGGGGCCACAGCAGAAGCGUUCACGUCGCAGCCCCUGCCAGAUUCUGGUGAAUCUGCGAAUUCUGCGGUAUAUCUC [U43C U72G] is 0.59; for UAACAGGGGGCCACAGCAGAAGCGUUCACGUCGCAGCCCCUGCCAGAUUCUGGUGAAUCUGCGAAUUCUGCAGUAUAUCUC [U43C U72A] it is 0.4. Consider UAACAGGGGGCCACAGCAGAAGCGUUCACGUCGCAGCCCCUGCCAGAUUCUGGUGAAUCUGCGAAUUCUGCCGUAUAUCUC [U43C U72C], for which the self-cleavage came to 0.76.

Take UAACAGGGGGCCACAGCAGAAGCGUUCACGUCGCAGCCCCUGCCAGAUUCUGGUGAAUCUGCGAAUUCUGCUGUAUACCUC [U43C U78C]: the self-cleavage was determined as 0.49. For UAACAGGGGGCCACAGCAGAAGCGUUCACGUCGCAGCCCCUGCCAGAUUCUGGUGAAUCUGCGAAUUCUGCUGUAUAGCUC [U43C U78G], the self-cleavage is 0.65. Turning to UAACAGGGGGCCACAGCAGAAGCGUUCACGUCGCAGCCCCUGCCAGAUUCUGGUGAAUCUGCGAAUUCUGCUGUAUAACUC [U43C U78A], the self-cleavage was 0.63. For the variant UAACAGGGGGCCACAGCAGAAGCGUUCACGUCGCAGCCCCUGUAAGAUUCUGGUGAAUCUGCGAAUUCUGCUGUAUAUCUC [C44A], the self-cleavage is 0.43.

UAACAGGGGGCCACAGCAGAAGCGUUCACGUCGCAGCCCCUGCCAGAUUCUGGUGAAUCUGCGAAUCCUGCUGUAUAUCUC [U43C U67C]: the self-cleavage amounted to 0.2.

Consider UAACAGGGGGCCACAGCAGAAGCGUUCACGUCGCAGCCCCUGCCAGAUUCUGGUGAAUCUGCGAAUACUGCUGUAUAUCUC [U43C U67A], for which the self-cleavage is 0.36. The figure for UAACAGGGGGCCACAGCAGAAGCGUUCACGUCGCAGCCCCUGGCAGAUUCUGGUGAAUCUGCGAAUUCUGCCGUAUAUCUC [U43G U72C] is 0.33; for UAACAGGGGGCCACAGCAGAAGCGUUCACGUCGCAGCCCCUGGCAGAUUCUGGUGAAUCUGCGAAUUCUGCAGUAUAUCUC [U43G U72A] it is 0.1.

The values are drawn from the RNAGym collection of RNA variant scans (doi:10.1093/nar/gkz1192).
